Measurements as given in the Immune Epitope Database (IEDB).

How the values were obtained:
HLA-B*51:01 [1] = assay: IEDB peptide-MHC binding, purified MHC/direct/fluorescence; filed as Kd, often an IC50 or EC50 that approximates it; ≥ and ≤ were set here for values at or beyond the usual limits of such assays
HLA-B*53:01 = assay: IEDB peptide-MHC binding, purified MHC/competitive/radioactivity; filed as Kd, often an IC50 or EC50 that approximates it; ≥ and ≤ were set here for values at or beyond the usual limits of such assays; settings: source organism: Dengue virus 4 Philippines/H241/1956
HLA-B*35:01 = assay: as above; settings: source organism: Dengue virus 4 Philippines/H241/1956
HLA-B*15:01 [2] = assay: IEDB peptide-MHC binding, purified MHC/competitive/fluorescence; ≥ and ≤ were set here for values at or beyond the usual limits of such assays
HLA-A*02:01 [3] = assay: as above
HLA-B*08:01 = assay: as above
HLA-A*24:02 = assay: as above
HLA-A*01:01 [4] = assay: as above
HLA-A*11:01 = assay: as above
HLA-A*03:01 [5] = assay: as above
HLA-B*39:01 = assay: IEDB peptide-MHC binding, purified MHC/competitive/fluorescence; filed as Kd, often an IC50 or EC50 that approximates it; ≥ and ≤ were set here for values at or beyond the usual limits of such assays; settings: source organism: Zaire ebolavirus
HLA-A*26:01 = assay: as above; settings: source organism: Zaire ebolavirus
HLA-B*27:03 = assay: as above; settings: source organism: Zaire ebolavirus
HLA-B*57:01 = assay: as above; settings: source organism: Zaire ebolavirus
HLA-A*69:01 = assay: as above; settings: source organism: Zaire ebolavirus
HLA-A*02:01 [6] = assay: as above; settings: source organism: Zaire ebolavirus
HLA-B*51:01 [7] = assay: as above; settings: source organism: Zaire ebolavirus
HLA-B*46:01 = assay: as above; settings: source organism: Zaire ebolavirus
HLA-A*02:03 = assay: IEDB peptide-MHC binding, purified MHC/direct/fluorescence; filed as Kd, often an IC50 or EC50 that approximates it; ≥ and ≤ were set here for values at or beyond the usual limits of such assays; settings: source organism: Zaire ebolavirus
HLA-A*02:16 = assay: as above; settings: source organism: Zaire ebolavirus
HLA-A*24:03 = assay: as above; settings: source organism: Zaire ebolavirus
HLA-A*03:01 [8] = assay: as above; settings: source organism: Zaire ebolavirus
HLA-A*01:01 [9] = assay: as above; settings: source organism: Zaire ebolavirus
HLA-A*02:11 = assay: as above; settings: source organism: Zaire ebolavirus
HLA-A*23:01 = assay: as above; settings: source organism: Zaire ebolavirus
HLA-A*02:12 = assay: as above; settings: source organism: Zaire ebolavirus
HLA-A*68:02 = assay: as above; settings: source organism: Zaire ebolavirus
HLA-A*02:19 = assay: as above; settings: source organism: Zaire ebolavirus
HLA-B*15:01 [10] = assay: as above; settings: source organism: Zaire ebolavirus
HLA-A*29:02 = assay: as above; settings: source organism: Zaire ebolavirus
HLA-B*27:05 = assay: as above; settings: source organism: Zaire ebolavirus
HLA-B*58:01 = assay: as above; settings: source organism: Zaire ebolavirus
HLA-B*07:02 = assay: IEDB peptide-MHC binding, purified MHC/competitive/fluorescence; ≥ and ≤ were set here for values at or beyond the usual limits of such assays; settings: source organism: Zaire ebolavirus
[11] = source organism: Vaccinia virus
[12] = source organism: Vaccinia virus Copenhagen
[13] = source organism: Sudan ebolavirus
[14] = source organism: Zaire ebolavirus

Question: What does the source list for TPFGQQRVF?
Answer: Kd (HLA-B*51:01 [1]; source organism: Dengue virus 1 Singapore/S275/1990): ≥ 20 µM; Kd (HLA-B*53:01): 0.264 µM; Kd (HLA-B*35:01): 0.0474 µM

Question: Which Kd (HLA-B*51:01 [1]; source organism: Dengue virus) does the source give for SPSKLASAI here?
Answer: ≥ 20 µM

Question: Which results are given for GCLRIQSLM?
Answer: IC50 (HLA-B*15:01 [2]; [11]): ≥ 591 µM; IC50 (HLA-A*02:01 [3]; [11]): 9.58 µM; IC50 (HLA-B*08:01; [11]): ≥ 697 µM

Question: Which IC50 (HLA-A*24:02; [12]) does the source give for RSDGYFLKI here?
Answer: 16.4 µM

Question: What about the IC50 (HLA-A*01:01 [4]; [12]) of the same sequence?
Answer: 3.4 µM

Question: What about the IC50 (HLA-A*02:01 [3]; [12]) of the same sequence?
Answer: 4.94 µM

Question: How did the IC50 (HLA-A*01:01 [4]; [13]) turn out when GTGPCPGDY was run?
Answer: 10.8 µM

Question: And the IC50 (HLA-A*11:01; [13])?
Answer: ≥ 114 µM

Question: ESDMDYHKI was tested. Which IC50 (HLA-A*24:02; [14]) did it give?
Answer: ≥ 111 µM

Question: What about the IC50 (HLA-A*01:01 [4]; [14]) of the same sequence?
Answer: ≥ 118 µM

Question: How did the IC50 (HLA-A*01:01 [4]; [13]) turn out when TENTSSYYA was run?
Answer: ≥ 142 µM

Question: With STHNTPVYK as the sequence, how does the IC50 (HLA-A*24:02; [14]) read?
Answer: ≥ 134 µM

Question: What about the IC50 (HLA-A*03:01 [5]; [14]) of the same sequence?
Answer: 5.02 µM

Question: And the IC50 (HLA-A*02:01 [3]; [14])?
Answer: ≥ 323 µM

Question: And the IC50 (HLA-A*11:01; [14])?
Answer: 0.44 µM

Question: With QVEQHHRRT as the sequence, how does the IC50 (HLA-A*03:01 [5]; [14]) read?
Answer: 3.08 µM

Question: What about the IC50 (HLA-A*02:01 [3]; [14]) of the same sequence?
Answer: ≥ 252 µM

Question: And the IC50 (HLA-A*11:01; [14])?
Answer: 0.543 µM

Question: Which IC50 (HLA-A*03:01 [5]; source organism: Variola virus) does the source give for SMRDQRKGR here?
Answer: 6.32 µM

Question: With YYATSYLEY as the sequence, how does the IC50 (HLA-B*15:01 [2]; [13]) read?
Answer: ≥ 244 µM

Question: What about the IC50 (HLA-A*24:02; [13]) of the same sequence?
Answer: 0.676 µM

Question: And the IC50 (HLA-A*01:01 [4]; [13])?
Answer: ≥ 110 µM

Question: For YQVNNLEEI, which IC50 (HLA-B*15:01 [2]; [14]) is on record?
Answer: 54.9 µM

Question: What about the IC50 (HLA-A*24:02; [14]) of the same sequence?
Answer: 1.66 µM

Question: What about the IC50 (HLA-A*02:01 [3]; [14]) of the same sequence?
Answer: 25.6 µM

Question: With KLLLWFNYL as the sequence, how does the IC50 (HLA-A*03:01 [5]; source organism: Variola virus) read?
Answer: ≥ 699 µM

Question: What about the IC50 (HLA-A*11:01; source organism: Variola virus) of the same sequence?
Answer: ≥ 140 µM

Question: Which IC50 (HLA-B*15:01 [2]; source organism: Variola virus) does the source give for LIIDEVHEH here?
Answer: ≥ 128 µM

Question: What about the IC50 (HLA-A*02:01 [3]; source organism: Variola virus) of the same sequence?
Answer: ≥ 99.4 µM

Question: And the IC50 (HLA-A*11:01; source organism: Variola virus)?
Answer: 69.2 µM

Question: Which results are given for TTEANAGQF?
Answer: Kd (HLA-B*39:01): ≥ 20 µM; Kd (HLA-A*26:01): ≥ 20 µM; Kd (HLA-B*27:03): ≥ 20 µM; Kd (HLA-B*57:01): ≥ 20 µM; Kd (HLA-A*69:01): ≥ 20 µM; Kd (HLA-A*02:01 [6]): ≥ 20 µM; Kd (HLA-B*51:01 [7]): ≥ 20 µM; Kd (HLA-B*46:01): ≥ 20 µM; Kd (HLA-A*02:03): ≥ 20 µM; Kd (HLA-A*02:16): ≥ 20 µM; Kd (HLA-A*24:03): ≥ 20 µM; Kd (HLA-A*03:01 [8]): ≥ 20 µM; Kd (HLA-A*01:01 [9]): ≥ 20 µM; Kd (HLA-A*02:11): ≥ 20 µM; Kd (HLA-A*23:01): ≥ 20 µM; Kd (HLA-A*02:12): ≥ 20 µM; Kd (HLA-A*68:02): ≥ 20 µM; Kd (HLA-A*02:19): ≥ 20 µM; IC50 (HLA-A*24:02; [14]): 22 µM; IC50 (HLA-A*01:01 [4]; [14]): ≥ 109 µM

Question: For LFLESGAVK, which IC50 (HLA-A*24:02; [14]) is on record?
Answer: 15.2 µM

Question: What about the IC50 (HLA-A*03:01 [5]; [14]) of the same sequence?
Answer: ≥ 192 µM

Question: And the IC50 (HLA-A*11:01; [14])?
Answer: 68.8 µM

Question: How did the Kd (HLA-A*26:01) turn out when GQFLSFASL was run?
Answer: ≥ 20 µM

Question: What about the Kd (HLA-B*27:03) of the same sequence?
Answer: ≥ 20 µM

Question: What about the Kd (HLA-B*57:01) of the same sequence?
Answer: ≥ 20 µM

Question: What about the Kd (HLA-A*69:01) of the same sequence?
Answer: ≥ 20 µM

Question: What about the Kd (HLA-B*51:01 [7]) of the same sequence?
Answer: ≥ 20 µM

Question: And the Kd (HLA-B*15:01 [10])?
Answer: 0.032 µM

Question: What about the Kd (HLA-A*29:02) of the same sequence?
Answer: ≥ 20 µM

Question: And the Kd (HLA-B*27:05)?
Answer: 0.151 µM

Question: What about the Kd (HLA-A*03:01 [8]) of the same sequence?
Answer: ≥ 20 µM

Question: And the Kd (HLA-B*58:01)?
Answer: ≥ 20 µM

Question: What about the Kd (HLA-A*68:02) of the same sequence?
Answer: ≥ 20 µM

Question: And the Kd (HLA-A*02:19)?
Answer: ≥ 20 µM

Question: And the IC50 (HLA-B*15:01 [2]; [14])?
Answer: 1.27 µM

Question: And the IC50 (HLA-A*24:02; [14])?
Answer: 19.5 µM

Question: And the IC50 (HLA-A*02:01 [3]; [14])?
Answer: 3.42 µM

Question: How did the IC50 (HLA-A*01:01 [4]; [13]) turn out when YTEGLMHNQ was run?
Answer: ≥ 135 µM

Question: Which IC50 (HLA-B*15:01 [2]; [11]) does the source give for KQKFPYEGG here?
Answer: ≥ 233 µM

Question: What does the source list for THKLSLTKL?
Answer: IC50 (HLA-A*03:01 [5]; source organism: Variola virus): ≥ 149 µM; IC50 (HLA-A*11:01; source organism: Variola virus): 46.2 µM

Question: Which IC50 (HLA-B*15:01 [2]; [14]) does the source give for HKNKFMAIL here?
Answer: ≥ 443 µM

Question: What about the IC50 (HLA-A*24:02; [14]) of the same sequence?
Answer: 50.9 µM

Question: What about the IC50 (HLA-A*02:01 [3]; [14]) of the same sequence?
Answer: ≥ 782 µM

Question: What about the IC50 (HLA-B*08:01; [14]) of the same sequence?
Answer: 42.7 µM

Question: What does the source list for KPVPNRSTK?
Answer: IC50 (HLA-A*03:01 [5]; [14]): ≥ 166 µM; IC50 (HLA-A*11:01; [14]): ≥ 115 µM; IC50 (HLA-B*07:02): 30.9 µM

Question: What does the source list for FQRTFSIPL?
Answer: IC50 (HLA-B*15:01 [2]; [14]): 2.2 µM; IC50 (HLA-A*24:02; [14]): 47 µM; IC50 (HLA-A*02:01 [3]; [14]): 3.55 µM; IC50 (HLA-B*08:01; [14]): 5.48 µM; IC50 (HLA-B*07:02): 3.92 µM

Question: How did the IC50 (HLA-B*15:01 [2]; [14]) turn out when QQYAESREL was run?
Answer: 15.7 µM

Question: And the IC50 (HLA-A*24:02; [14])?
Answer: ≥ 72.4 µM

Question: What about the IC50 (HLA-A*02:01 [3]; [14]) of the same sequence?
Answer: 58.2 µM

Question: And the IC50 (HLA-B*07:02)?
Answer: ≥ 134 µM
